Here are results for 15 molecules from PMC11263391 (Nature Communications, 2024).

First the molecules themselves.
B1: DDA3-degron 23-residue peptide (peptide)
peptide: SPEKLEEILDEANRLAAQLEQCAL
notes: DDA3; the region covering residues 70-93 was named as the potential degron and a 23-residue peptide was synthesized; residues 70-93 are 24 residues, the peptide is said to have 23; also called DDA3 residues 70–93; source: synthetic peptide (Shanghai Apeptide Co., Ltd.)
B2: LZTS1 degron peptide, 17 residues (ELESLMKEQDLLETKLR) (peptide)
peptide: ELESLMKEQDLLETKLR
notes: LZTS1 degron, positions E1 to R17 of the degron numbering; also called 17-residue degron; source: synthetic peptide (Shanghai Apeptide Co., Ltd.)
B3: LZTS1 degron peptide, 21 residues (RQELESLMKEQDLLETKLRSY) (peptide)
peptide: RQELESLMKEQDLLETKLRSY
notes: LZTS1 degron shortened by two residues at the C-terminus; source: synthetic peptide (Shanghai Apeptide Co., Ltd.)
B4: DDA3 degron peptide (peptide)
peptide: PEKLEEILDEANRLAAQLEQCAL
notes: stretch of DDA3; the text names the region as residues 70-93 (24 residues) and the peptide as 23 residues; also called DDA3 peptide; source: synthetic peptide (Shanghai Apeptide Co., Ltd.)
B5: LZTS1 degron peptide Y19R (peptide)
peptide: RQELESLMKEQDLLETKLRSRER
notes: numbers count on: the degron, E1 = third letter of the 23-residue peptide; source: synthetic peptide (Shanghai Apeptide Co., Ltd.)
B6: GIGYF1 degron peptide (peptide)
peptide: EDDEGLKHLQQEAEKLVASLQDS
notes: stretch of GIGYF1, a reported ASB7 substrate; source: synthetic peptide (Shanghai Apeptide Co., Ltd.)
B7: CEP152 degron peptide (peptide)
peptide: ELEKAKQECQDLKGKLEKCCRH
notes: stretch of CEP152, a reported ASB7 substrate; source: synthetic peptide (Shanghai Apeptide Co., Ltd.)
B8: CLIP2 degron peptide (peptide)
peptide: EIGELKAVMEGIKMEHQLELGN
notes: stretch of CLIP2, a reported ASB7 substrate; source: synthetic peptide (Shanghai Apeptide Co., Ltd.)
B9: LZTS1 degron peptide, 21 residues (ELESLMKEQDLLETKLRSYER) (peptide)
peptide: ELESLMKEQDLLETKLRSYER
notes: LZTS1 degron shortened by two residues at the N-terminus; source: synthetic peptide (Shanghai Apeptide Co., Ltd.)
B10: CCDC17 degron peptide (peptide)
peptide: LEQEIRELQAEAGRTRGALEVLG
notes: stretch of CCDC17, a reported ASB7 substrate; also called CCDC17 peptide; source: synthetic peptide (Shanghai Apeptide Co., Ltd.)
B11: GST-fused CEP152 degron peptide (peptide)
chain: GHCFQELEKAKQECQDLKGKLEKCCRHLQHLERKHK
notes: degron stretch of CEP152; pGEX vector; also called GST-tagged CEP152; not shown: GST, N-terminal, kept
B12: GST-fused CLIP2 degron peptide (peptide)
chain: SGPGAQQKEIGELKAVMEGIKMEHQLELGNLQAKHDLET
notes: degron stretch of CLIP2; pGEX vector; also called GST-tagged CLIP2; not shown: GST, N-terminal, kept
B13: GST-fused GIGYF1 degron peptide (peptide)
chain: SSAGPPGDLEDDEGLKHLQQEAEKLVASLQDSSLEEEQFT
notes: degron stretch of GIGYF1; pGEX vector; also called GST-tagged GIGYF1; not shown: GST, N-terminal, kept
B14: GST-fused CCDC17 degron peptide (peptide)
chain: GMSRLFGLEQEIRELQAEAGRTRGALEVLGARIQELQAE
notes: degron stretch of CCDC17; pGEX vector; also called GST-tagged CCDC17; not shown: GST, N-terminal, kept
B15: GST-fused LZTS1-degron (peptide)
chain: VLQLQQEKRQLRQELESLMKEQDLLETKLRSYEREKTSFG
notes: degron stretch of LZTS1; pGEX vector; also called GST-tagged LZTS1; not shown: GST, N-terminal, kept

T2 sequence (Q9H672 11-318, chain 1 of 3): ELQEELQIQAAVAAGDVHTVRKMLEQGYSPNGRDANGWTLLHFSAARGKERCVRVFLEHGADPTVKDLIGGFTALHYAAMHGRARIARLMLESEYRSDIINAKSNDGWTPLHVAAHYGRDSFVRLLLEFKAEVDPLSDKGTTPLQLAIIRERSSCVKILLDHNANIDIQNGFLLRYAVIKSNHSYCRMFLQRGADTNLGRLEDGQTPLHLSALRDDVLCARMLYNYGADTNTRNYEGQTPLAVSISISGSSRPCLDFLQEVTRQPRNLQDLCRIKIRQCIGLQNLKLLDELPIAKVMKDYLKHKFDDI
T2 sequence (Q15370 1-104, chain 2 of 3): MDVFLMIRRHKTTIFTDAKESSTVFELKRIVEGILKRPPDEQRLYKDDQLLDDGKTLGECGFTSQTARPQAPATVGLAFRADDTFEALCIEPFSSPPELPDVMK
T2 sequence (Q15369 17-112, chain 3 of 3): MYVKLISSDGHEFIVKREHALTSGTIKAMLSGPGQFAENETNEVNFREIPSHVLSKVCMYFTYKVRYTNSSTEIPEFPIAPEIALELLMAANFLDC

For one test, the target named is T1, ASB7-Elongin B-Elongin C ternary complex (human, UniProt Q9H672 11-318; Q15370 1-104; Q15369 17-112).
T1 construct: ASB7, human, residues 11-318; Elongin B, human, residues 1-104; ASB7 cloned into pET28-MKH8SUMO (Addgene plasmid #79526 is the vector); Elongin B and C in pCDFDuet-1; tag cleaved with TEV protease; also called ASB7-Elongin B/C; wild-type ASB7; source: E. coli BL21 (DE3), co-expressed, purified (Ni-NTA, Superdex 200); not shown: SUMO, N-terminal, cleaved; copies: + +
Description: ITC; peptide (0.8–4 mM) titrated into the ASB7 complex (39–156 µM); 16 °C; 20 mM Tris-HCl pH 7.5, 150 mM NaCl; MicroCal PEAQ-ITC. Conditions: both partners purified. For orientation: Isothermal titration calorimetry measures the heat released or taken up as one component is titrated into another.
Target sequence in this assay (Q9H672 11-318, chain 1 of 3): as the sequence (Q9H672 11-318, chain 1 of 3) above
Target sequence in this assay (Q15370 1-104, chain 2 of 3): as the sequence (Q15370 1-104, chain 2 of 3) above
Target sequence in this assay (Q15369 17-112, chain 3 of 3): as the sequence (Q15369 17-112, chain 3 of 3) above
By Kd is commonly meant the equilibrium constant for the complex coming apart. Read a high Kd as weaker binding. Molecule B1 yielded a Kd of 1300 nM.

The next test addresses T2, ASB7-Elongin B-Elongin C ternary complex (wild-type ASB7, residues 11-318) (human, UniProt Q9H672 11-318; Q15370 1-104; Q15369 17-112).
T2 construct: human ASB7, residues 11-318; human Elongin B, residues 1-104; also called ASB7-Elongin B/C; WT; source: E. coli BL21 (DE3), co-expressed, purified (Ni-NTA, Superdex 200); not shown: SUMO, N-terminal, cleaved; copies: + +
Put plainly: ITC; peptide in the syringe titrated into ASB7-Elongin B/C in the cell; MicroCal PEAQ-ITC, 16 °C, 20 mM Tris-HCl pH 7.5, 150 mM NaCl; 39–156 μM protein, 0.8–4 mM peptide; repeated three times, mean ± SD. The note with it: both partners purified.
In general, stoichiometry N refers to the number of molecules, sites or subunits per partner or assembly. B2: the equilibrium dissociation constant (Kd) is 5100 nM and the “stoichiometry N” value turned out to be 1.12.

With B3, binding was put at a Kd of 900 nM and the “stoichiometry N” value is 0.91.

In the case of B4, the “stoichiometry N” value worked out at 1.32.

For the molecule B5, the Kd was 700 nM and the “stoichiometry N” value turned out to be 0.71.

In the case of B6, the Kd turned out to be 1000 nM and the “stoichiometry N” value was 0.78.

Regarding B7, the “stoichiometry N” value worked out at 1.27.

Regarding B8, the dissociation constant (Kd) came out at 700 nM and the “stoichiometry N” value amounted to 0.71.

As for B9, the Kd was found to be 700 nM and the “stoichiometry N” value was determined as 0.68.

For the molecule B10, the affinity, expressed as Kd, was 1100 nM and the “stoichiometry N” value stood at 0.76.

For another test, the target named is T1, ASB7-Elongin B-Elongin C ternary complex. Description: pull-down; GST or GST-fusion degron peptides (~50 µg) on glutathione magnetic beads, ~30 µg purified ASB7-Elongin B/C added; 20 mM Tris-HCl pH 7.5, 400 mM NaCl, 2 mM β-mercaptoethanol; 4 °C; glutathione elution, Coomassie-stained SDS-PAGE. Conditions: both partners purified.
Consider B11, for which the binding result was “binds”.

Take B12: the binding result is on record as “binds”.

Turning to B13, the binding result is “binds”.

B14: the binding result is reported as “binds”.

As to B15, the binding result was “binds”.
